T1: EsCas13d, nuclease-dead (Eubacterium siraeum, UniProt B0MS50, R295A;H300A;R849A;H854A)
T1 sequence: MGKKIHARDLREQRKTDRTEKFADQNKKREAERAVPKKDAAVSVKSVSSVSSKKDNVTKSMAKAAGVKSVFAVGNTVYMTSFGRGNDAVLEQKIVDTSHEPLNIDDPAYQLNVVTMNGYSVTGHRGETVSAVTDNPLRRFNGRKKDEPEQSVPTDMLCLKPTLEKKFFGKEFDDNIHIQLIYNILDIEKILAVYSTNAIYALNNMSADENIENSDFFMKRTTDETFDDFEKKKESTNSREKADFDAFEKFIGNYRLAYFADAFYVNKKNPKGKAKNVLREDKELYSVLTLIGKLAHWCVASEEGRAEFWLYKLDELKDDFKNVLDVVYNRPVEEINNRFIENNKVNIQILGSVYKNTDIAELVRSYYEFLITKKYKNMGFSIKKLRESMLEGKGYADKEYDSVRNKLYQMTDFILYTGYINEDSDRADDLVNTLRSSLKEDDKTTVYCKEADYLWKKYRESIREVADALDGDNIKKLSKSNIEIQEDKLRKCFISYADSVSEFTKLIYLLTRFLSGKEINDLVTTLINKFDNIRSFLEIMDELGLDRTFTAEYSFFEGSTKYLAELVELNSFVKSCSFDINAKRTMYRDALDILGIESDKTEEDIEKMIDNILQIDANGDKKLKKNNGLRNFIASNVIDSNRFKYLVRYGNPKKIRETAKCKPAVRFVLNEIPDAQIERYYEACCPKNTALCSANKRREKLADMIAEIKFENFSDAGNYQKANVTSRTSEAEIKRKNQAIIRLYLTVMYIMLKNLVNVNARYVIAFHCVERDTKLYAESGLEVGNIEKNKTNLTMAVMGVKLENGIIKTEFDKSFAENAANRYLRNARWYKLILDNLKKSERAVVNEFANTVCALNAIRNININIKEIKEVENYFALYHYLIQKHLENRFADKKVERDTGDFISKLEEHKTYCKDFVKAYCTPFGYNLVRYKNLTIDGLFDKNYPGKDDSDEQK

B1: target 1 C6G,C21U (mixed)
RNA 1: CACCCGUGCAAAAAUGCAGGGGUCUAAAACUGAGCGGAUAACCUCUCUAUGG
RNA 2: GGGAAUGGAUCCACAUCUACGAAUUCGUACUAUAGAGAGGUUAUCGGCUCACCGAGAUCGGAAGAGCACACGU
B2: target 1 insG 3' of 2 (mixed)
RNA 1: B1 RNA 1
RNA 2: GGGAAUGGAUCCACAUCUACGAAUUCGUACCAUAGAGAGGUUAUCCGCUCGACCGAGAUCGGAAGAGCACACGU
B3: target 1 U3G,C7U (mixed)
RNA 1: B1 RNA 1
RNA 2: B1 RNA 2 with U31C, C45U, G46C, U49G
B4: target 2 MT 5'PFS AUG 3'PFS CGA (mixed)
RNA 1: CACCCGUGCAAAAUUGCAGGGGUCUAAAACCUUCUCCAAAUUGUUUCAUCCU
RNA 2: GGGAAUGGAUCCACAUCUACGAAUUCAUGAGGAUGAAACAAUUUGGAGAAGCGAAGAUCGGAAGAGCACACGU
B5: target 2 MT 5'PFS CUU 3'PFS AAU (mixed)
RNA 1: B4 RNA 1
RNA 2: B4 RNA 2 with A27C, G29U, C52A, G53A, A54U
B6: target 2 MT 5'PFS UUG 3'PFS CAA (mixed)
RNA 1: B4 RNA 1
RNA 2: B4 RNA 2 with A27U, G53A
B7: target 2 MT 5'PFS CUU 3'PFS AAC (mixed)
RNA 1: B4 RNA 1
RNA 2: B4 RNA 2 with A27C, G29U, C52A, G53A, A54C
B8: target 2 MT 5'PFS AAU 3'PFS CGC (mixed)
RNA 1: B4 RNA 1
RNA 2: B4 RNA 2 with U28A, G29U, A54C
B9: target 2 MT 5'PFS GUU 3'PFS AGC (mixed)
RNA 1: B4 RNA 1
RNA 2: B4 RNA 2 with A27G, G29U, C52A, A54C
B10: target 2 MT 5'PFS CUU 3'PFS AAG (mixed)
RNA 1: B4 RNA 1
RNA 2: B4 RNA 2 with A27C, G29U, C52A, G53A, A54G
B11: target 2 MT 5'PFS CUU 3'PFS AAA (mixed)
RNA 1: B4 RNA 1
RNA 2: B4 RNA 2 with A27C, G29U, C52A, G53A
B12: target 2 MT 5'PFS UUA 3'PFS CCG (mixed)
RNA 1: B4 RNA 1
RNA 2: B4 RNA 2 with A27U, G29A, G53C, A54G
B13: target 2 MT 5'PFS AGC 3'PFS CAA (mixed)
RNA 1: B4 RNA 1
RNA 2: B4 RNA 2 with U28G, G29C, G53A
B14: target 2 MT 5'PFS UUG 3'PFS CAG (mixed)
RNA 1: B4 RNA 1
RNA 2: B4 RNA 2 with A27U, G53A, A54G
B15: target 2 MT 5'PFS ACC 3'PFS CUA (mixed)
RNA 1: B4 RNA 1
RNA 2: B4 RNA 2 with U28C, G29C, G53U
B16: target 2 MT 5'PFS AAU 3'PFS CGG (mixed)
RNA 1: B4 RNA 1
RNA 2: B4 RNA 2 with U28A, G29U, A54G
B17: target 2 MT 5'PFS GUU 3'PFS AGA (mixed)
RNA 1: B4 RNA 1
RNA 2: B4 RNA 2 with A27G, G29U, C52A
B18: target 2 MT 5'PFS CCC 3'PFS UUA (mixed)
RNA 1: B4 RNA 1
RNA 2: B4 RNA 2 with A27C, U28C, G29C, C52U, G53U
B19: target 2 MT 5'PFS AUA 3'PFS CUG (mixed)
RNA 1: B4 RNA 1
RNA 2: B4 RNA 2 with G29A, G53U, A54G
B20: target 2 MT 5'PFS AGA 3'PFS ACG (mixed)
RNA 1: B4 RNA 1
RNA 2: B4 RNA 2 with U28G, G29A, C52A, G53C, A54G
B21: target 2 MT 5'PFS AGC 3'PFS CAC (mixed)
RNA 1: B4 RNA 1
RNA 2: B4 RNA 2 with U28G, G29C, G53A, A54C
B22: target 2 MT 5'PFS GUU 3'PFS AGG (mixed)
RNA 1: B4 RNA 1
RNA 2: B4 RNA 2 with A27G, G29U, C52A, A54G
B23: target 2 MT 5'PFS AGC 3'PFS CAU (mixed)
RNA 1: B4 RNA 1
RNA 2: B4 RNA 2 with U28G, G29C, G53A, A54U
B24: target 2 MT 5'PFS AUA 3'PFS CUA (mixed)
RNA 1: B4 RNA 1
RNA 2: B4 RNA 2 with G29A, G53U
B25: target 2 MT 5'PFS UUG 3'PFS CAC (mixed)
RNA 1: B4 RNA 1
RNA 2: B4 RNA 2 with A27U, G53A, A54C
B26: target 2 MT 5'PFS AGU 3'PFS AGG (mixed)
RNA 1: B4 RNA 1
RNA 2: B4 RNA 2 with U28G, G29U, C52A, A54G
B27: target 2 MT 5'PFS AUA 3'PFS CUU (mixed)
RNA 1: B4 RNA 1
RNA 2: B4 RNA 2 with G29A, G53U, A54U
B28: target 2 MT 5'PFS UUA 3'PFS CCA (mixed)
RNA 1: B4 RNA 1
RNA 2: B4 RNA 2 with A27U, G29A, G53C
B29: target 2 MT 5'PFS GCU 3'PFS CUU (mixed)
RNA 1: B4 RNA 1
RNA 2: B4 RNA 2 with A27G, U28C, G29U, G53U, A54U
B30: target 2 MT 5'PFS GAU 3'PFS UUA (mixed)
RNA 1: B4 RNA 1
RNA 2: B4 RNA 2 with A27G, U28A, G29U, C52U, G53U
B31: target 2 MT 5'PFS AUA 3'PFS CUC (mixed)
RNA 1: B4 RNA 1
RNA 2: B4 RNA 2 with G29A, G53U, A54C
B32: target 2 MT 5'PFS AGA 3'PFS ACA (mixed)
RNA 1: B4 RNA 1
RNA 2: B4 RNA 2 with U28G, G29A, C52A, G53C
B33: target 2 MT 5'PFS AGA 3'PFS ACC (mixed)
RNA 1: B4 RNA 1
RNA 2: B4 RNA 2 with U28G, G29A, C52A, G53C, A54C
B34: target 2 MT 5'PFS AGC 3'PFS CAG (mixed)
RNA 1: B4 RNA 1
RNA 2: B4 RNA 2 with U28G, G29C, G53A, A54G
B35: target 2 MT 5'PFS GAG 3'PFS AUG (mixed)
RNA 1: B4 RNA 1
RNA 2: B4 RNA 2 with A27G, U28A, C52A, G53U, A54G
B36: target 2 MT 5'PFS AGA 3'PFS ACU (mixed)
RNA 1: B4 RNA 1
RNA 2: B4 RNA 2 with U28G, G29A, C52A, G53C, A54U

Residue numbers refer to the chain shown, from its start. Names and notes keep the numbering of the source.

The series deals with T1, EsCas13d, nuclease-dead. Briefly: crRNA (strand 1, pre-loaded); Mg2+; 40 mM Tris-HCl pH 7.5, 150 mM NaCl, 6 mM MgCl2, 1 mM DTT, 0.1% Tween-20, 0.2 mg/ml BSA; 25 C; 10 min per concentration, then washed. Particulars: tags: His6-TwinStrep-SUMO cleaved; N-terminal SNAP kept (SNAP-Surface 488); label: 3' end held by stalled T7 RNA polymerase.
Regarding B1, binding was put at a Kd of 5.38 ± 0.17 nM.
With B2, the Kd came to 8.6 ± 0.4 nM.
Regarding B3, binding was characterised by a dissociation constant (Kd) of 5.39 ± 0.15 nM.
The same measure for B4: 9.4 ± 1 nM; for B5: 4.3 ± 0.6 nM.
Under B6 stands 9.9 ± 1.4 nM.
As for B7, the equilibrium dissociation constant (Kd) amounted to 4.3 ± 0.5 nM. Compared with the last molecule, the Kd is about 2.3-fold lower.
The same measure for B8: 7.3 ± 1.3 nM; for B9: 11.6 ± 1.2 nM; for B10: 4.1 ± 0.4 nM.
The molecule B11 had a dissociation constant (Kd) of 2.9 ± 0.35 nM.
In turn, B12 had a dissociation constant Kd of 39 ± 4 nM.
Molecule B13 showed an equilibrium dissociation constant (Kd) of 7 ± 1.8 nM.
For B14, the Kd was 11.8 ± 0.9 nM.
B15 had a Kd of 9.7 ± 2.5 nM.
The same measure for B16: 4.6 ± 0.6 nM.
Under B17 stands 10 ± 1.1 nM.
As for B18, the Kd worked out at 1.25 ± 0.21 nM.
On to B19, for which binding was characterised by a dissociation constant (Kd) of 8.8 ± 1.6 nM.
B20 registered an equilibrium dissociation constant (Kd) of 10.3 ± 1.8 nM.
B21: the equilibrium dissociation constant (Kd) is 11.4 ± 2.6 nM.
The same measure for B22: 12.5 ± 0.9 nM; for B23: 7.3 ± 1.3 nM.
B24 registered a Kd of 6.1 ± 1.4 nM.
B25: the affinity, expressed as Kd, was 16.4 ± 2.2 nM.
B26 had an equilibrium dissociation constant (Kd) of 12.3 ± 1.9 nM.
B27 showed a dissociation constant (Kd) of 20 ± 6 nM.
Under B28 stands 29 ± 5 nM; under B29, 17.5 ± 3 nM; under B30, 23 ± 7 nM.
B31 returned a Kd of 13 ± 4 nM.
B32 yielded an equilibrium dissociation constant (Kd) of 4.6 ± 1.1 nM.
Under B33 stands 21 ± 9 nM.
With B34, the affinity, expressed as Kd, was 6.7 ± 1.1 nM.
In turn, B35 had a dissociation constant (Kd) of 5.9 ± 0.4 nM.
Under B36 stands 11.6 ± 1.9 nM.

A word on the Kd: it is the constant that tells how readily two partners part at equilibrium. Low readings indicate tighter binding, high ones weaker binding.

The values above are taken from article PMC10786891, “Massively parallel profiling of RNA-targeting CRISPR-Cas13d”.
